Source: patent US20190241657A1

Target: human CD3epsilon/delta-Fc fusion protein (heterodimer of CD3epsilon and CD3delta extracellular domains fused to human IgG Fc) (human) (UniProt P04234)
Assay: Biacore

Sequence of human CD3epsilon/delta-Fc fusion protein (heterodimer of CD3epsilon and CD3delta extracellular domains fused to human IgG Fc) (human) (chain, as listed by the source mutant, chain 1 of 2): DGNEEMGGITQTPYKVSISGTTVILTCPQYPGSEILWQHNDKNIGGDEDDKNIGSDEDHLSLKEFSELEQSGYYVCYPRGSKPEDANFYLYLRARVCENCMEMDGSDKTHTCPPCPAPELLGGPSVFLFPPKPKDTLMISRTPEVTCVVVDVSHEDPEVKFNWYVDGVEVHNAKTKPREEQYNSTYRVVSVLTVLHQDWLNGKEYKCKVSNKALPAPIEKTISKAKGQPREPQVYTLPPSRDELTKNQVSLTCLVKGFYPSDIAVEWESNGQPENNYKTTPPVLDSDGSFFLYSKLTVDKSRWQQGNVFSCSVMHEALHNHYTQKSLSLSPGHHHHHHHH
Sequence of human CD3epsilon/delta-Fc fusion protein (heterodimer of CD3epsilon and CD3delta extracellular domains fused to human IgG Fc) (human) (P04234 22-105, stated change not applied, chain 2 of 2): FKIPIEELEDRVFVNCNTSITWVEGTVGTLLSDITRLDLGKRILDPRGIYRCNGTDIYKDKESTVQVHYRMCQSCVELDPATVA

## Single chain antibody DART format MGD006 (CD123xCD3 bi-specific diabody) (bispecific antibody)
  Kd: 9 nM
